Interaction score data for six molecules are collected here from publication PMC10397247.

One assay has as its target T1, 4H492-bA.
T1 chain: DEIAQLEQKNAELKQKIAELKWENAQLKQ
The assay is described as follows: two-hybrid library CCNG1.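 Also: natural log of median RNA to DNA barcode read ratio; higher means stronger binding.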

Another assay addresses T2, 4H741-bA.
T2 chain: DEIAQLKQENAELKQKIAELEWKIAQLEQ
The assay is described as follows: two-hybrid library CCNG1.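 Also: natural log of median RNA to DNA barcode read ratio; higher means stronger binding.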

The next assay addresses T3, 4H348-bA.
T3 chain: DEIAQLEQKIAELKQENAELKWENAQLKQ
The assay is described as follows: two-hybrid library CCNG1.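 Also: natural log of median RNA to DNA barcode read ratio; higher means stronger binding.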

A further assay deals with T4, 4H40-bA.
T4 chain: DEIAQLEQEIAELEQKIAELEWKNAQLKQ
The assay is described as follows: two-hybrid library CCNG1.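 Also: natural log of median RNA to DNA barcode read ratio; higher means stronger binding.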

In a further assay the target is T5, 4H477-bA.
T5 chain: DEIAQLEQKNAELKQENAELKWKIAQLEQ
The assay is described as follows: two-hybrid library CCNG1.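 Also: natural log of median RNA to DNA barcode read ratio; higher means stronger binding.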

The target in a further assay is T6, 4H730-bN.
T6 chain: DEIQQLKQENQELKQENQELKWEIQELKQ
The assay is described as follows: two-hybrid library CCNG1.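 Also: natural log of median RNA to DNA barcode read ratio; higher means stronger binding.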

Another assay deals with T7, 4H949-bN.
T7 chain: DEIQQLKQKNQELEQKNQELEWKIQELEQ
The assay is described as follows: two-hybrid library CCNG1.

The target in a further assay is T8, 4H56-bN.
T8 chain: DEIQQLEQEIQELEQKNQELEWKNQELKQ
The assay is described as follows: two-hybrid library CCNG1.

Another assay has as its target T9, 4H932-bN.
T9 chain: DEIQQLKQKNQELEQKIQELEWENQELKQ
The assay is described as follows: two-hybrid library CCNG1.

Another assay addresses T10, 4H349-bN.
T10 chain: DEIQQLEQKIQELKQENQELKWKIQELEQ
The assay is described as follows: two-hybrid library CCNG1.

The target in another assay is T11, 4H796-bN.
T11 chain: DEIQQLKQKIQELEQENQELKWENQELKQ
The assay is described as follows: two-hybrid library CCNG1.

The target of the next assay is T12, 4H3381-bN.
T12 chain: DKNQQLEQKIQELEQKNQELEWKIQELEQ
The assay is described as follows: two-hybrid library CCNG1.

The next assay deals with T13, 4H406-AA.
T13 chain: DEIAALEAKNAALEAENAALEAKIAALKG
The assay is described as follows: two-hybrid library CCmax. To be noted: mean of both orientations.

A further assay addresses T14, 4H_BCR.
T14 chain: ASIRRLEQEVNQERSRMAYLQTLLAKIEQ
The assay is described as follows: two-hybrid library CCmax. As to conditions: mean of both orientations.

In a further assay the target is T15, 4H452-AA.
T15 chain: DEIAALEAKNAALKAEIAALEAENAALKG
The assay is described as follows: two-hybrid library CCmax. To be noted: mean of both orientations.

The next assay addresses T16, 4H3015-AA.
T16 chain: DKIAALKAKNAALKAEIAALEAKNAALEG
The assay is described as follows: two-hybrid library CCmax. To be noted: mean of both orientations.

A further assay has as its target T17, 4H3073-AA.
T17 chain: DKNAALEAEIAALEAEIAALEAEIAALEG
The assay is described as follows: two-hybrid library CCmax.

The target in another assay is 4H_GCN4. The assay is described as follows: two-hybrid library CCmax. To be noted: mean of both orientations.
Another assay concerns the target GCN2_T. The assay is described as follows: two-hybrid library CCmax.
The target of a further assay is T18, 4H3001-AA.
T18 chain: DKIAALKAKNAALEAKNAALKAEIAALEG
The assay is described as follows: two-hybrid library CCmax. As to conditions: mean of both orientations.

Another assay addresses T19, 4H2931-AA.
T19 chain: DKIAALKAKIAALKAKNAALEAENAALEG
The assay is described as follows: two-hybrid library CCmax.

A further assay concerns the target T20, 4H_APH.
T20 chain: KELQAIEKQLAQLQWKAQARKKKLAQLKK
The assay is described as follows: two-hybrid library CCmax. As to conditions: mean of both orientations.

A further assay has as its target T21, 4H347-AA.
T21 chain: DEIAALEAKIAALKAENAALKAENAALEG
The assay is described as follows: two-hybrid library CCmax. As to conditions: mean of both orientations.

The next assay concerns the target T22, 4H3438-AA.
T22 chain: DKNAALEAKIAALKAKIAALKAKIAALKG
The assay is described as follows: two-hybrid library CCmax. As to conditions: mean of both orientations.

The target of the next assay is T23, 4H56-AA.
T23 chain: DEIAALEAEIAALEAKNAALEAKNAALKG
The assay is described as follows: two-hybrid library CCmax. As to conditions: mean of both orientations.

The next assay deals with T24, 4H949-bA.
T24 chain: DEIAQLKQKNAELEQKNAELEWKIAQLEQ
The assay is described as follows: two-hybrid library CCNG1.

For a further assay, the target named is T25, 4H40-bN.
T25 chain: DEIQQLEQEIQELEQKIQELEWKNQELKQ
The assay is described as follows: two-hybrid library CCNG1.

For another assay, the target named is T26, 4H741-bN.
T26 chain: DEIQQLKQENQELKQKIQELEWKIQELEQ
The assay is described as follows: two-hybrid library CCNG1.

The target of a further assay is T27, 4H492-bN.
T27 chain: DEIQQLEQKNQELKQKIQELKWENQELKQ
The assay is described as follows: two-hybrid library CCNG1.

Another assay deals with T28, 4H477-bN.
T28 chain: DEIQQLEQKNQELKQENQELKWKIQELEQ
The assay is described as follows: two-hybrid library CCNG1.

For the next assay, the target named is T29, 4H55-AA.
T29 chain: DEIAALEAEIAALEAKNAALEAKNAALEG
The assay is described as follows: two-hybrid library CCmax. To be noted: mean of both orientations.

The next assay concerns the target T30, 4H3664-AA.
T30 chain: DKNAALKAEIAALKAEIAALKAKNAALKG
The assay is described as follows: two-hybrid library CCmax.

For another assay, the target named is T31, 4H662-AA.
T31 chain: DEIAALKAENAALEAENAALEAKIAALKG
The assay is described as follows: two-hybrid library CCmax. To be noted: mean of both orientations.

A further assay deals with T32, 4H4033-AA.
T32 chain: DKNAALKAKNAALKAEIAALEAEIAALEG
The assay is described as follows: two-hybrid library CCmax. To be noted: mean of both orientations.

The target in another assay is T33, 4H481-AA.
T33 chain: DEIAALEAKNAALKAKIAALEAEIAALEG
The assay is described as follows: two-hybrid library CCmax. To be noted: mean of both orientations.

For the next assay, the target named is T34, 4H3922-AA.
T34 chain: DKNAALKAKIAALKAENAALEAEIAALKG
The assay is described as follows: two-hybrid library CCmax. As to conditions: mean of both orientations.

The target in the next assay is T35, 4H369-AA.
T35 chain: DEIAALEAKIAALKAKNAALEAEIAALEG
The assay is described as follows: two-hybrid library CCmax. To be noted: mean of both orientations.

4H_GCN4, sequence (chain, as listed by the source): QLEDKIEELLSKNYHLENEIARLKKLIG

B1: 4H348-bA (peptide)
chain: DEIAQLEQKIAELKQENAELKWENAQLKQ
With B1, the interaction score with 4H492-bA was -0.0783; with 4H741-bA, -0.761; with 4H348-bA, 0.473; with 4H40-bA, -0.298; with 4H477-bA, -1.23.

B2: 4H3381-bN (peptide)
chain: DKNQQLEQKIQELEQKNQELEWKIQELEQ
For the molecule B2, the interaction score in the assay with 4H730-bN was -1.25; in the assay with 4H949-bN, -1.1; in the assay with 4H56-bN, -1.09; in the assay with 4H932-bN, -0.998; in the assay with 4H349-bN, -0.946; with 4H796-bN, -1.3. For the same molecule, in the assay with 4H3381-bN, the interaction score is 0.302.

B3: 4H2931-AA (peptide)
chain: DKIAALKAKIAALKAKNAALEAENAALEG
Take B3: the interaction score in the assay with 4H406-AA is -0.98; with 4H_BCR, -1.73; with 4H452-AA, -1.98; with 4H3015-AA, -2.54; in the assay with 4H3073-AA, 0.803; with 4H_GCN4 it was -2.51. Also, the interaction score in the assay with GCN2_T is -2.11; with 4H3001-AA, -1.79; with 4H2931-AA, -1.66; in the assay with 4H_APH, -1.87; in the assay with 4H347-AA, -1.41; with 4H3438-AA, -1.54. In addition, the interaction score with 4H56-AA is 1.81.

B4: 4H40-bA (peptide)
chain: DEIAQLEQEIAELEQKIAELEWKNAQLKQ
For B4, the interaction score with 4H949-bA is -1.8; with 4H492-bA, 1.72; with 4H741-bA, -0.423; in the assay with 4H40-bA it was 1.76; with 4H477-bA, -1.02.

B5: 4H40-bN (peptide)
chain: DEIQQLEQEIQELEQKIQELEWKNQELKQ
Consider B5, for which the interaction score with 4H40-bN was 0.212; with 4H741-bN it was -0.956; with 4H492-bN it was -0.862; with 4H477-bN it was 0.0764.

B6: 4H3664-AA (peptide)
chain: DKNAALKAEIAALKAEIAALKAKNAALKG
Regarding B6, the interaction score with 4H55-AA is -1.04; in the assay with 4H3664-AA it was 0.563; with 4H662-AA, -1.5; with 4H4033-AA it was -1.55; in the assay with 4H481-AA it was -1.04; with 4H3922-AA, -1.57. In the assay with 4H369-AA, the interaction score is -1.44.
